Target: recombinant mouse α1C/β2A tubulin heterodimer (mouse, UniProt P68373;Q7TMM9)
Test: single-molecule TIRF microscopy

recombinant mouse α1C/β2A tubulin heterodimer, sequence (P68373 whole entry, one chain of several): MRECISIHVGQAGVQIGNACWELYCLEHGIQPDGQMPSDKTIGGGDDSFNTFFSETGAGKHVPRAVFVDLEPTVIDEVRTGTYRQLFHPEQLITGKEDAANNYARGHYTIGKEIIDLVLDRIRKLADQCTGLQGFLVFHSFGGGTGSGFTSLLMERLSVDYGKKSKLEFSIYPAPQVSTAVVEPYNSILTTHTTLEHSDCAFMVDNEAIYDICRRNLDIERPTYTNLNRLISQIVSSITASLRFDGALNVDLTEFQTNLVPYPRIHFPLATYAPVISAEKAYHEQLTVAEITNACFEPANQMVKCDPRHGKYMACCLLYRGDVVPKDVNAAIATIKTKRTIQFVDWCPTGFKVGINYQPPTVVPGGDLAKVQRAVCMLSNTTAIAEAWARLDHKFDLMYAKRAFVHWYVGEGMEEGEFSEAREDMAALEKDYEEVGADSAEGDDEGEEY

binding result: binds
B1: EB1-GFP (full-length human EB1 with a GFP tag) (natural protein)
chain: MAVNVYSTSVTSDNLSRHDMLAWINESLQLNLTKIEQLCSGAAYCQFMDMLFPGSIALKKVKFQAKLEHEYIQNFKILQAGFKRMGVDKIIPVDKLVKGKFQDNFEFVQWFKKFFDANYDGKDYDPVAARQGQETAVAPSLVAPALNKPKKPLTSSSAAPQRPISTQRTAAAPKAGPGVVRKNPGVGNGDDEAAELMQQVNVLKLTVEDLEKERDFYFGKLRNIELICQENEGENDPVLQRIVDILYATDEGFVIPDEGGPQEEQEEY

— PMC8800519 (Journal of Molecular Cell Biology, 2021)
